What all share (test): cell_activity
Series [1] concerns the target T1, VirD2-VirD1 translational fusion (p35SD2D1) (Agrobacterium tumefaciens) (UniProt P06668).
T1 sequence: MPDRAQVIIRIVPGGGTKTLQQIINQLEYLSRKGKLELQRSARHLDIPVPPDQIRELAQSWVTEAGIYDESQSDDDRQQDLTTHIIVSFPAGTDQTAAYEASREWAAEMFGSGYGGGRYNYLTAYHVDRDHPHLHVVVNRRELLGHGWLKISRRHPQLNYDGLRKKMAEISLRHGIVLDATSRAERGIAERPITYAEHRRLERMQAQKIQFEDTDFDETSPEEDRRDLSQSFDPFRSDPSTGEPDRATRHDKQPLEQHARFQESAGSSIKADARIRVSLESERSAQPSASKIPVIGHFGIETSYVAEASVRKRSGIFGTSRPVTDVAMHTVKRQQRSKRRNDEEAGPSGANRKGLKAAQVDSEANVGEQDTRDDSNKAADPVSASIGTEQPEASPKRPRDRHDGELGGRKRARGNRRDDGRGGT

Series [2] has as its target T2, VirD1-VirD2 translational fusion (p35SD1D2) (Agrobacterium tumefaciens) (UniProt P06668).
T2 sequence: T1 sequence

In series [3] the test system is VirD1 (Agrobacterium tumefaciens). The conditions noted are these: VirD1 alone.
[4] abbreviates: maize, pwBarRBLuc geminivirus vector.

On to “ATCCGGCAGGATATATACCGTTGTAATTCTGCA (double strand) [right border in WDV replicon pwi35SRBLuc]”, for which the figures for the activity (% of control luciferase) in series [1] (setting [4]) and in series [2] (setting [4]) were 3.6 and 6, respectively. Moreover, in series [3] (maize, target alone 15.0), the activity (Luc/GUS ratio) turned out to be 8.1.
On to “ATCCGGCAGGATATATACCGTTGTAATTCTGCA (double strand) [T-DNA right border duplex, pRB(+)Luc]”, for which the activity (% of control luciferase) in series [1] (maize, 1 ug + 4 ug) turned out to be 2.6; in series [1] (tobacco, 0.5 ug + 2 ug), 5; in series [2] (maize, 1 ug + 4 ug) it was 2.4; in series [2] (tobacco, 0.5 ug + 2 ug) it was 5.4; in series [3] (maize), 105; in series [3] (tobacco) it was 72.
Consider “ATCCGGCAGGATATATACCGTTGTAATTCTGCA (double strand) [T-DNA right border reversed, pRB(-)Luc]”, for which the activity (% of control luciferase) in series [3] (tobacco) is 95.

For the origin of these results see patent US6410329.
